# Measurements: IntAct's records for PubMed 8848052
# B1: mRNA export factor GLE1 (Saccharomyces cerevisiae), Q12315 (parent)
# chain: MRFVFDEVFNSDTDSPEFEETCSTTSSTSSQCPTPEPSPAIKLPSFTKVGTKKLVNESVVILDPALENALRDLNLQSKLIPINEPIVAASSIIVPHSTNMPLPRASHSSLLDNAKNSNATAPLLEAIEESFQRKMQNLVLANQKEIQSIRENKRRVEEQRKRKEEEERKRKEAEEKAKREQELLRQKKDEEERKRKEAEAKLAQQKQEEERKKIEEQNEKERQLKKEHEAKLLQQKDKLGKAVTNFDKISKMFWHYKDKIAQIKQDIVLPIKKADVNVRNLLSRHKRKINPKFGQLTNSNQQLFKIQNELTQLINDTKGDSLAYHWILNFIAKAVVHQAETEVRVKPESALPLGKLTLYLLVQFPELQELFMARLVKKCPFVIGFTCEIDTEKGRQNMGWKRNNENKWEDNTSYDERMGGILSLFAIITRLQLPQEFITTTSHPFPIALSWHILARICNTPLNLITNTHFVILGSWWDAAAVQFLQAYGNQASKLLILIGEELTSRMAEKKYVGAARLRILLEAWQNNNMESFPEMSP
# partner: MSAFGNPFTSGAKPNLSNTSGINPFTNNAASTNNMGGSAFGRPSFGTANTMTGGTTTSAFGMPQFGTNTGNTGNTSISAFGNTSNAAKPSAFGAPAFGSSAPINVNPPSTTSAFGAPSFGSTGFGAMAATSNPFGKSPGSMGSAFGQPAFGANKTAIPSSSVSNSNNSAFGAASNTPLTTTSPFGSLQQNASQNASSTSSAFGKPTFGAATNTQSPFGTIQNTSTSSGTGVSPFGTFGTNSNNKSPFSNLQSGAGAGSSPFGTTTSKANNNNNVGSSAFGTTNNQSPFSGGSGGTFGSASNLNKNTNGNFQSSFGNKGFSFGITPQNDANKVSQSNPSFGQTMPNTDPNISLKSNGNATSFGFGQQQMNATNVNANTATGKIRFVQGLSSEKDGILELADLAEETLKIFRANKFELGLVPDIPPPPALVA
# Variants of: B1
# Conditions: with nup42_yeast NUP42, P49686
row,effect of a mutation on the interaction,Variant
1,decreasing interaction,MRFVFDEVFNSDTDSPEFEETCSTTSSTSSQCPTPEPSPAIKLPSFTKVGTKKLVNESVVILDPALENALRDLNLQSKLIPINEPIVAASSIIVPHSTNMPLPRASHSSLLDNAKNSNATAPLLEAIEESFQRKMQNLVLANQKEIQSIRENKRRVEEQRKRKEEEERKRKEAEEKAKREQELLRQKKDEEERKRKEAEAKLAQQKQEEERKKIEEQNEKERQLKKEHEAKLLQQKDKLGKAVTNFDKISKMFWHYKDKIAQIKQDIVLPIKKADVNVRNLLSRHKRKINPKFGQLTNSNQQLFKIQNELTQLINDTKGDSLAYHWILNFIAKAVVHQAETEVRVKPESALPLGKATLYLLVQFPELQELFMARLVKKCPFVIGFTCEIDTEKGRQNMGWKRNNENKWEDNTSYDERMGGILSLFAIITRLQLPQEFITTTSHPFPIALSWHILARICNTPLNLITNTHFVILGSWWDAAAVQFLQAYGNQASKLLILIGEELTSRMAEKKYVGAARLRILLEAWQNNNMESFPEMSP [L356A]
